According to article PMC13086497, “Heat shock factor regulation of antimicrobial peptides expression suggests a conserved defense mechanism induced by febrile temperature in arthropods”:

T1: LvHSF1 (rLvHSF1-GST) (Litopenaeus vannamei, UniProt X2D760 1-632)
T1 sequence: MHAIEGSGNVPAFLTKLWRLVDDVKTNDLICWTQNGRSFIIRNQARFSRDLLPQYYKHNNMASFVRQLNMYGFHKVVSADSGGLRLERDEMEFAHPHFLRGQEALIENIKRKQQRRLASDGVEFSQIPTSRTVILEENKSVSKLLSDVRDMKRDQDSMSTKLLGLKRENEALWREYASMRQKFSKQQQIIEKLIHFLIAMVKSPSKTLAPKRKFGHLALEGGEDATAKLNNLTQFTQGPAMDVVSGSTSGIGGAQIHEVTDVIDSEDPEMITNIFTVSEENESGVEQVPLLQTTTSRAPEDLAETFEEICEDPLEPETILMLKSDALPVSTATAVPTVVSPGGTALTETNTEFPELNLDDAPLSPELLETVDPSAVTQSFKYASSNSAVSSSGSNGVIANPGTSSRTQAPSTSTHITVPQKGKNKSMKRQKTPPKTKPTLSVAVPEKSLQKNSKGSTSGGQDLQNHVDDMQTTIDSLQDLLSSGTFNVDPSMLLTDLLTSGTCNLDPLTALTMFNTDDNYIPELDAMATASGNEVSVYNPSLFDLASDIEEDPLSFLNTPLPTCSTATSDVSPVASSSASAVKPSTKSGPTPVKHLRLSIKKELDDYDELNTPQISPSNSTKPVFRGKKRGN

B1: Mut-SWD-Probe1 (dsDNA)
DNA 1: TACCACTAGGACTTTCCAAACGGCCAGGTTTGCTTCACTATAACA
DNA 2: TGTTATAGTGAAGCAAACCTGGCCGTTTGGAAAGTCCTAGTGGTA
B2: SWD-Probe2 (dsDNA)
DNA 1: GTTGGGATTTCCATGATGACTTTTCGAGGAATTAGTGGCTGCGTG
DNA 2: CACGCAGCCACTAATTCCTCGAAAAGTCATCATGGAAATCCCAAC
B3: SWD-Probe1 (dsDNA)
DNA 1: TACCACTAGGACTTTCTATAGAACCATCTTTGCTTCACTATAACA
DNA 2: TGTTATAGTGAAGCAAAGATGGTTCTATAGAAAGTCCTAGTGGTA

Target: T1, LvHSF1 (rLvHSF1-GST)
Test: EMSA; EMSA: 10 ug recombinant protein, 20 fmol biotin probe, LightShift Chemiluminescent EMSA kit, 5% native PAGE; buffer, pH and temperature not stated
Conditions: blunt
[1] = chain copies: 3, label: biotin (labeled probe)

| Binder | binding result (chain copies: 3, label: biotin) | binding result [1] |
| --- | --- | --- |
| B1 | no binding | – |
| B2 | – | binds |
| B3 | – | binds |
